Laboratory results from patent publication US20250206841A1 (ADEPT THERAPEUTICS, published 2025).

T1: human Trop-2-His protein (human, UniProt P09758 27-274)
T1 construct: extracellular domain; Assay paragraphs say only 'Trop-2-His'; also called hTrop-2; Kactus Cat #TRP-HM121; not shown: His tag
T1 sequence (looked up): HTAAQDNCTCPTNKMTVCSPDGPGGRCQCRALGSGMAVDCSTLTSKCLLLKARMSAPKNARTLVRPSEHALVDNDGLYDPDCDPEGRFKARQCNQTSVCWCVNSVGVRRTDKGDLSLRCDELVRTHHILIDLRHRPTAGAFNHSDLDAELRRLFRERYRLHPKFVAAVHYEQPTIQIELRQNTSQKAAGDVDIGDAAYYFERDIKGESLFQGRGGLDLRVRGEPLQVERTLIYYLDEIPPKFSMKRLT

T2: cynomolgus Trop-2-His protein (cynomolgus, UniProt P09758 27-274 (human entry))
T2 construct: also called cynmolgus Trop-His; Kactus Cat #TRP-CM121; not shown: His tag
T2 chain: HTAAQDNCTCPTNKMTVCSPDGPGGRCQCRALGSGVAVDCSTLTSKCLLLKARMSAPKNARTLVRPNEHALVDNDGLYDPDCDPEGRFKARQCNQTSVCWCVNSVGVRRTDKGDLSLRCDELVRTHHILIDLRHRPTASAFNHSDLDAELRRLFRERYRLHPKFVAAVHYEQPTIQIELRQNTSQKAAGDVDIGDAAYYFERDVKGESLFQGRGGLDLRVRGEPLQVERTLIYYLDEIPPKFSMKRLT

T3: rat Trop-2 (rat, UniProt Q6P9Z6 25-270, limits assumed)
T3 sequence (looked up): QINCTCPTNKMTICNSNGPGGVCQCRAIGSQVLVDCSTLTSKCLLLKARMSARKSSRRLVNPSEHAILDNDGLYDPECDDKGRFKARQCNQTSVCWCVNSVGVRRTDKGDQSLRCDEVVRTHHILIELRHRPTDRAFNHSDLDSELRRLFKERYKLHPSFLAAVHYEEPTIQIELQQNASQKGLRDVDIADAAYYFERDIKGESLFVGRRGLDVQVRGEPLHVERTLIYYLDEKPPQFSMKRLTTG

T4: human Trop-1 (EpCAM) (human, UniProt P16422 24-265, limits assumed)
T4 sequence (looked up): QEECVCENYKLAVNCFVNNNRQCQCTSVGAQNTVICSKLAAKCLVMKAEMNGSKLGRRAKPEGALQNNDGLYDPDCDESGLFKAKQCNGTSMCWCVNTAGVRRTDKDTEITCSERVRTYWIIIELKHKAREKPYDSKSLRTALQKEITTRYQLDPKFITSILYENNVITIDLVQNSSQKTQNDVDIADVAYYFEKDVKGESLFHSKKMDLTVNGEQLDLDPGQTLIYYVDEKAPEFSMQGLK

T5: mouse Trop-2 (mouse, UniProt Q8BGV3 25-270, limits assumed)
T5 construct: also called Kactus Cat #TRP-MM121
T5 sequence (looked up): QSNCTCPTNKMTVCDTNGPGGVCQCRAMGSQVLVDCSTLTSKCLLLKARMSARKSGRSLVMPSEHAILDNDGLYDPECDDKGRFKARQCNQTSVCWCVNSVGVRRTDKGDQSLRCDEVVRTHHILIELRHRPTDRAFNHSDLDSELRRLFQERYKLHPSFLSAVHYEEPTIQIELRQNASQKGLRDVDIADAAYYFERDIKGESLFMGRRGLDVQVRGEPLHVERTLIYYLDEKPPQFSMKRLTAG


Key:
[1] = target: T1, human Trop-2-His protein; assay: BLI (Gator Prime), LEM supernatant Ab on HFC probe
Protocol: (§1) After three times of regeneration and neutralization of HFC probe (Gator, Cat #160003), LEM transfection supernatant samples to be tested in K buffer was diluted 1:1 in K buffer and immobilized onto HFC probe. […] The association and dissociation of human or cynomolgus Trop-2-His antigen from antibody was measured on BLI machine Gator Prime. Affinity was calculated using Gator Bio analysis software. Blank control was used for reference subtraction. 1 μg/ml of Sacituzumab govitecan was used as positive control.
(§2) Table 23 below summarizes the binding affinity of exemplary anti-Trop-2 antibodies in LEM transfection supernatant samples to human and cynomolgus Trop-2 using Gator.

[2] = target: T2, cynomolgus Trop-2-His protein; assay: BLI (Gator Prime), LEM supernatant Ab on HFC probe
Protocol: as §1, §2

[3] = target: T3, rat Trop-2; assay: ELISA, similar to Table 24
Protocol: (§3) Purified antibodies were tested by ELISA to confirm their binding and affinity against human and cynomolgus Trop-2-His protein. Briefly, 96-well Maxisorp plates (Nunc) were coated with 100 μl/well of 0.5 μg/ml human (Kactus Cat #TRP-HM121, or Sino Biological, Cat #10428-HO8H) or cynomolgus Trop-2 protein (Kactus Cat #TRP-CM121, or Sino Biological, Cat #90893-CO8H) diluted in 1×PBS (GIBCO) overnight at 4° C. Plates were washed four times with 300 μl/well washing buffer (1×PBST, diluted from 20×PBST (Thermo Scientific) with distilled water)) and then blocked with 300 μl/well of blocking buffer (1×PBST/3% BSA (BSA, Sigma)) for 2 hours at RT on plate shaker at 100 rpm. Plates were washed and added with 100 μl/well of testing antibodies, which were serial diluted with assay buffer (PBST/1% BSA). The antibodies were incubated at room temperature for 2 hours on plate shaker at 100 rpm. Plates were washed. One hundred microliters (100 μl) of 1:10,000 diluted horseradish peroxidase (HRP) conjugated anti-hIgG antibody (Jackson Immuno Research) was added into each well and incubated at room temperature for 1 hour on plate shaker at 100 rpm. Plates were washed and added with 100 μl/well TMB substrate for color development in dark at room temperature for up to 10 minutes. After addition of 50 μl/well of stop solution (1N H₂SO₄), plates were read at 450 nm on a plate reader (SpectraMax M5). EC₅₀ values were calculated using Graphpad Prism. Sacituzumab govitecan, was used as positive control. Anti-HEL.hIgG1 was used as isotype control.
(§4) Similar assays were performed to test whether the exemplary antibodies of the present disclosure bind to human Trop-1 (EpCAM) or mouse Trop-2 (Kactus, Cat #TRP-MM121) or rat Trop-2 (kactus, Cat #TRP_RM121). No binding of the exemplary antibodies of the present disclosure to human Trop-1 (EpCAM) or mouse or rat Trop-2 has been detected.

[4] = target: T4, human Trop-1 (EpCAM); assay: ELISA, similar to Table 24
Protocol: as §3, §4

[5] = target: T5, mouse Trop-2; assay: ELISA, similar to Table 24
Protocol: as §3, §4

Row | Binder | Kd [1] [nM] | koff [1] [s⁻¹] | kon [1] [M⁻¹ s⁻¹] | Kd [2] [nM] | koff [2] [s⁻¹] | kon [2] [M⁻¹ s⁻¹] | binding result [3] | binding result [4] | binding result [5]
1 | 63H3 (antibody, V domains shown, Rabbit-derived clone; LEM construct: VH + rabbit IgG CH1 + human IgG1 CH2-CH3) VH: QEQLKESGGGLVQPGGSLKLSCKASGFDFNSYGVSWVRQAPGKGLEWIAYIYPAFHNAYYANWVNGRFTISSDNAQNTVDLQLNSLTAADTATYFCARDAGGTDYNYNLWGPGTLVTVSS VL: DVVMTQTPASVEVAVGGTVTLKCQASEDIESYSAWYQQKPGQPPNLLIYEASKLASGVSSRFSGSGYGTEFTLTISGVECADAATYYCQQALTIGNVDNPFGGGSEVVVR | 0.22 | 0.00016 | 704000 | 0.218 | 0.00016 | 740000 | no binding | no binding | no binding
2 | 66A1 (antibody, V domains shown, Rabbit-derived clone; LEM construct: VH + rabbit IgG CH1 + human IgG1 CH2-CH3) VH: QEQLKESGGGLVQPGGSLKLSCKASGFDFNNYGVSWVRQAPGKGLEWIAYIYPAFHNTYYASWVNGRFTISSHNAQNTLYLQLNSLTAADTATYFCARDAGGTDYAYNLWGPGTLVTVSS VL: DVVMTQTPASVEAAVGGTVSINCQASEDIESYLAWYQQKPGQPPKLLIYKASTLASGVSSRFKGSGSGKQFTLTISGVECADAATYYCQQVLTIGNVDNPFGGGSEVVVK | 0.426 | 0.00028 | 656000 | 0.367 | 0.00032 | 869000 | no binding | no binding | no binding

Continued by falling Kd [1], values first:

Row | Kd [1] [nM] | koff [1] [s⁻¹] | kon [1] [M⁻¹ s⁻¹] | Kd [2] [nM] | koff [2] [s⁻¹] | kon [2] [M⁻¹ s⁻¹] | binding result [3] | binding result [4] | binding result [5] | Binder
3 | 0.656 | 0.00046 | 706000 | 0.628 | 0.00061 | 972000 | no binding | no binding | no binding | 65D5 (antibody, V domains shown, Rabbit-derived clone; LEM construct: VH + rabbit IgG CH1 + human IgG1 CH2-CH3) VH: QEQLKESGGGLVQPGGSLKLSCKASGFDFNAYGVSWVRQAPGKGLEWIAYIYPAFHNTYYATWVNGRFTISSHNAQNTLYLQLNTLTAADTATYFCARDAGTTDYNFNLWGPGTLVTVSS VL: DIVMTQTPASVSEPVGGTVTIKCQASQSISSYLAWYQQKPGQPPKLLIYEATKLTSGVSSRFSGSGYGTEFTLTISGVECADAATYYCQQALTVGDVDNPFGGGSEVVVK
4 | 0.28 | 0.0001 | 358000 | 0.256 | 0.0001 | 577000 | no binding | no binding | no binding | 5D4 (antibody, V domains shown, Rabbit-derived clone; LEM construct: VH + rabbit IgG CH1 + human IgG1 CH2-CH3) VH: QQLEESGGGLVKPEGSLTLTCKGSGFDFSGTYWMWWVRQAPGKGLEWIACIYVGSGSSTYYASWAKGRFTISSTSSTAVTLQATSLTAADTATYFCARGATNNVFMNYFNLWGPGTLVTVSS VL: FEMTQTPSSVSEPVGGTVTIKCQASEDISSNLGWYQQKPGQPPKLLIYGASTLASGVPSRFKGSGSGTEFTLTISDLECADAATYYCQTSYYIDDGVNGFGGGTEVVVK
